Test results from article PMC11928938.
One block for each substance: values may come before it.

Assays:
Test in all cases: SEC; size-exclusion chromatography on Superdex 200 of purified recombinant hGlyRS; dimer and monomer forms fractionated; dimer to monomers
[1] = target: human glycyl-tRNA synthetase H418R variant (hGlyRS-H418R), recombinant (human)
[2] = target: human glycyl-tRNA synthetase S211F variant (hGlyRS-S211F), recombinant (human)
[3] = target: human glycyl-tRNA synthetase, wild type (hGlyRS-WT), recombinant (human)

dimer:monomer (D:M) ratio, dimer part (dimer parts against 3.0 monomer parts) [1]: 7
stoichiometry N [1]: 2
Substance: human glycyl-tRNA synthetase H418R variant (hGlyRS-H418R), recombinant (enzyme)

dimer:monomer (D:M) ratio, dimer part (dimer parts against 6.2 monomer parts) [2]: 3.8
Substance: human glycyl-tRNA synthetase S211F variant (hGlyRS-S211F), recombinant (enzyme)

dimer:monomer (D:M) ratio, dimer part (dimer parts against 0.9 monomer parts) [3]: 9.1
stoichiometry N [3]: 2
Substance: human glycyl-tRNA synthetase, wild type (hGlyRS-WT), recombinant (enzyme)
